# Measured values published in patent publication US20230277613A1, “Polysaccharide-Rich Bombax Costatum Flower Extract” (priority 2020, published 2023).
# Marks after values point to notes of the source that are not given here.
# System: normal human keratinocyte monolayer (NHK)
# Test: Scratch assay, migration of NHK
# Format: cell-based
# Conditions: EGF 100 ng/ml; 5 hours
# Description: Scratch Assay: a lesion was performed on a mat of normal human keratinocyte monolayer (NHK) at confluence before treatment with BCP extract at 0.01% and 0.05% dry matter or with EGF (Epidermal Growth Factor) at 100 ng/ml. A photo was taken at the start of treatment and after 5 hours of incubation in order to measure the rate of progression of the HCNs within the lesion. The percentage of coverage was evaluated under the different conditions by image analysis. The significance of the results was assessed by Student's t test.
molecule,measurement,value
"EGF: Epidermal Growth Factor, reference in the scratch assay (protein, UniProt P01133 23-1207, looked up, Pro-epidermal growth factor) Pro-epidermal growth factor: PQHWSCPEGTLAGNGNSTCVGPAPFLIFSHGNSIFRIDTEGTNYEQLVVDAGVSVIMDFHYNEKRIYWVDLERQLLQRVFLNGSRQERVCNIEKNVSGMAINWINEEVIWSNQQEGIITVTDMKGNNSHILLSALKYPANVAVDPVERFIFWSSEVAGSLYRADLDGVGVKALLETSEKITAVSLDVLDKRLFWIQYNREGSNSLICSCDYDGGSVHISKHPTQHNLFAMSLFGDRIFYSTWKMKTIWIANKHTGKDMVRINLHSSFVPLGELKVVHPLAQPKAEDDTWEPEQKLCKLRKGNCSSTVCGQDLQSHLCMCAEGYALSRDRKYCEDVNECAFWNHGCTLGCKNTPGSYYCTCPVGFVLLPDGKRCHQLVSCPRNVSECSHDCVLTSEGPLCFCPEGSVLERDGKTCSGCSSPDNGGCSQLCVPLSPVSWECDCFPGYDLQLDEKSCAASGPQPFLLFANSQDIRHMHFDGTDYGTLLSQQMGMVYALDHDPVENKIYFAHTALKWIERANMDGSQRERLIEEGVDVPEGLAVDWIGRRFYWTDRGKSLIGRSDLNGKRSKIITKENISQPRGIAVHPMAKRLFWTDTGINPRIESSSLQGLGRLVIASSDLIWPSGITIDFLTDKLYWCDAKQSVIEMANLDGSKRRRLTQNDVGHPFAVAVFEDYVWFSDWAMPSVMRVNKRTGKDRVRLQGSMLKPSSLVVVHPLAKPGADPCLYQNGGCEHICKKRLGTAWCSCREGFMKASDGKTCLALDGHQLLAGGEVDLKNQVTPLDILSKTRVSEDNITESQHMLVAEIMVSDQDDCAPVGCSMYARCISEGEDATCQCLKGFAGDGKLCSDIDECEMGVPVCPPASSKCINTEGGYVCRCSEGYQGDGIHCLDIDECQLGEHSCGENASCTNTEGGYTCMCAGRLSEPGLICPDSTPPPHLREDDHHYSVRNSDSECPLSHDGYCLHDGVCMYIEALDKYACNCVVGYIGERCQYRDLKWWELRHAGHGQQQKVIVVAVCVVVLVMLLLLSLWGAHYYRTQKLLSKNPKNPYEESSRDVRSRRPADTEDGMSSCPQPWFVVIKEHQDLKNGGQPVAGEDGQAADGSMQPTSWRQEPQLCGMGTEQGCWIPVSSDKGSCPQVMERSFHMPSYGTQTLEGGVEKPHSLLSANPLWQQRALDPPHQMELTQ",Evolution compared to the control,+85% **
